We go through 4 molecules from patent publication US20160046707A1 (EISAI R AND D MANAGEMENT, published 2016).

Experiment [1] concerns the target T1, human CCL20 anchored via a His-tag (human, UniProt P78556 27-96).
T1 construct: Construct not described; also called His-tag anchored CCL20; not shown: His-tag
Briefly: ELISA on His-tag anchored human CCL20, antibody titrated (x axis 'Ab conc. (ug/ml)', falling from left to right), Abs 450.

Another experiment concerns the target T2, recombinant human CCL16 (human, UniProt O15467 24-120).
T2 construct: also called HCC-4
T2 sequence (looked up): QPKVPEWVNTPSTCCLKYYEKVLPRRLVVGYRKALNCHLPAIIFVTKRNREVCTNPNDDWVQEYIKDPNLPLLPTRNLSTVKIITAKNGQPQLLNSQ
The experiment in a line: ELISA, plate-bound chemokine (1 ug/ml), antibody 10 ug/ml, OD450. The method in brief:
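Wells coated overnight at 4 °C with 1 μg/ml recombinant human chemokine in PBS, blocked 1 h, then incubated 1 h at room temperature with antibodies at 10 μg/ml in 0.02% Tween 20/PBS. TMB development 15–30 min, stopped with 2 M H2SO4, OD read at 450 nm.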
(An ELISA detects its analyte on a solid surface through an enzyme-linked reagent.)

For experiment [2], the target named is T3, mouse CCL20-secreted alkaline phosphatase (SEAP) fusion (mouse, UniProt O89093 28-97).
T3 construct: Expressed in HEK293E, used as culture supernatant; also called SEAP-tagged mouse CCL20; mCCL20; not shown: secreted alkaline phosphatase (SEAP), cDNA from pSEAP-Enhancer vector (Clontech)
T3 sequence: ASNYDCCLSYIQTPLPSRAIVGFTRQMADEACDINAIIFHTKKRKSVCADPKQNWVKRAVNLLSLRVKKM
The experiment in a line: ELISA (fluorescent HRP substrate): CCL20-SEAP captured on anti-alkaline phosphatase in 5-fold dilutions from 20 nM (x axis, nM), antibody at 1 ug/ml. The procedure:
(§1) To test whether the chimeric and humanized antibodies can bind to mouse, cynomolgus, or rhesus macaque CCL20 orthologs, we used ELISA assays as illustrated in FIG. 15. Recombinant secreted alkaline phosphatase (SEAP)-chemokine fusion proteins were engineered as described in Example 2, expressed and purified for all of the CCL20 orthologs tested. Nunc MaxiSorb flat-bottom black plates were coated with 1 μg/ml mouse anti-placental alkaline phosphatase antibody (Pierce, cat# MA1-19354) in 50 mM sodium bicarbonate, pH 9.4, overnight at 4° C. Plates were then blocked using 1× phosphate buffered saline with Tween-20 (PBST) with 5% bovine serum albumin (BSA) for 2 hours at room temperature. 20 nM SEAP-CCL20 fusion proteins were serially diluted 5-fold in Opti-MEM medium (Invitrogen). Chimeric and humanized (HC2/LC3 and HC2/LK3) antibodies were diluted to 1 μg/ml in 1×PBST with 5% BSA, added to the plates, and incubated for 1 hr at room temperature. The plates were then washed with 1×PBST with 5% BSA three times. […] QuantaBlu fluorescent HRP substrate (Pierce cat#15169) was added for detection of bound antibody by measuring fluorescence in a Molecular Devices M5 (Excitation 325 nm/Emission 420 nm) plate reader.
(§2) While the hamster anti-mouse CCL20 antibody 2F5-5 MAb bound mouse CCL20 with a 50% effective dose (EC₅₀) of 64 pM (data not shown), neither the chimeric nor humanized anti-human CCL20 antibodies bound detectably to mouse CCL20 or rat CCL20 under the conditions described above. By contrast, both the chimeric and humanized antibodies effectively bound to human, rhesus, and cynomolgus CCL20 (FIGS. 16A-C, 17A and B).

For experiment [3], the target named is T4, rhesus CCL20-secreted alkaline phosphatase (SEAP) fusion (rhesus monkey).
T4 construct: also called rCCL20; rhesus CCL20-SEAP; not shown: the SEAP reporter (cDNA from Clontech pSEAP-Enhancer) and its junction to CCL20
T4 chain: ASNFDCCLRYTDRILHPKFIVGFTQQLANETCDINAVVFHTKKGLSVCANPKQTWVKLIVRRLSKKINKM
The description is as above. The protocol:
as §1, §2

Experiment [4] addresses T5, human CCL20-secreted alkaline phosphatase (SEAP) fusion (human, UniProt P78556 27-96).
T5 construct: also called hCCL20; human CCL20-SEAP; not shown: secreted alkaline phosphatase (SEAP), cDNA from pSEAP-Enhancer vector (Clontech)
Described as above. The procedure: as §1, §2

The target of experiment [5] is rat CCL20-secreted alkaline phosphatase (SEAP) fusion (rat, UniProt P97884 27-96; P05187 23-511). Briefly: ELISA on CCL20-SEAP, Abs 450; x axis 'ug/ml' in 4-fold steps down from 10, taken as the antibody concentration as in FIG. 11C.
The target in experiment [6] is T6, cynomolgus CCL20-secreted alkaline phosphatase (SEAP) fusion (cynomolgus monkey).
T6 construct: also called cCCL20; cynomolgus CCL20-SEAP; not shown: the SEAP reporter (cDNA from Clontech pSEAP-Enhancer) and its junction to CCL20
T6 chain: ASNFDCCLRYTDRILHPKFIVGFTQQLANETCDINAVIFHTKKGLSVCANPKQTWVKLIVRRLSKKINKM
The experiment is described as above.

For experiment [7], the target named is T4, rhesus CCL20-secreted alkaline …. Described as above.
In experiment [8] the target is T5, human CCL20-secreted alkaline …. The experiment is described as above.

T1 sequence (P78556 27-96 limits assumed): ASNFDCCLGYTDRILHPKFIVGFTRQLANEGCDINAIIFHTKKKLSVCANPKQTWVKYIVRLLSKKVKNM
T5 sequence (P78556 27-96): as the sequence (P78556 27-96 limits assumed) above
Sequence of rat CCL20-secreted alkaline phosphatase (SEAP) fusion (P97884 other isoform, or with tags, fused parts or gaps): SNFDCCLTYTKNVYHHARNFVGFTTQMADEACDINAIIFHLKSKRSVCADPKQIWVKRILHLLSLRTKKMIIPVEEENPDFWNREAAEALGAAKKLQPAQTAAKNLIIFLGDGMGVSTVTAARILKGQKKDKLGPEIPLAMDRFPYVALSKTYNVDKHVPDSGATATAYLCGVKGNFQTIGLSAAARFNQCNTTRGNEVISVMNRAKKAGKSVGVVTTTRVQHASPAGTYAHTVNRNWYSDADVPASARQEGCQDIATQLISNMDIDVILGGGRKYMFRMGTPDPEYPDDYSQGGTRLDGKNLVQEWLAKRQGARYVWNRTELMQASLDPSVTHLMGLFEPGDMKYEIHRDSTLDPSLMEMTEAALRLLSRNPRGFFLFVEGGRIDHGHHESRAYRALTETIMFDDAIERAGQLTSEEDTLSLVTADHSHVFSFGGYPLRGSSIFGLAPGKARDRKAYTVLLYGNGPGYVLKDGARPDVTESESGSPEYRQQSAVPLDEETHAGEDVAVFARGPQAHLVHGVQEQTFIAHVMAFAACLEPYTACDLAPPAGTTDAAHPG

B1: mouse anti-human CCL20 monoclonal antibody 36F7C10 (antibody, V domains shown)
VH: QVQLQQPGAELVKPGASVKMSCKASGYTFTNYWMHWVKQRPGQGLEWIGVIDPSDSYTTYNQKFKGKATLTVDTSSSTAYMQLSSLTSEDSAVYYCTRGNYGVDYAMDYWGQGTSVTVSS
VL: DIQMTQSPASLSASVGETVTITCGASENIYGALNWYQRKQGKSPQLLIYGATNLADGMSSRFSGSGSGRQYSLKISSLHPDDVATYYCQNVLITPYTFGGGTKLEIK
notes: Mouse hybridoma antibody; also called MouseMAb; parental mouse clone 36F7C10
By EC50 (read off the curve) is commonly meant the concentration giving half of the maximal effect. A higher EC50 (read off the curve) goes with weaker potency. B1: in [1], the “EC50 (read off the curve)” value was roughly 0.005 µg/mL. Moreover, the binding result in the experiment with recombinant human CCL16 is “no binding (tested: 10 ug/ml)”.

B2: chimeric 36F7C10 antibody (36F7C10-hFc) (antibody, V domains shown)
VH: QVQLQQPGAELVKPGASVKMSCKASGYTFTNYWMHWVKQRPGQGLEWIGVIDPSDSYTTYNQKFKGKATLTVDTSSSTAYMQLSSLTSEDSAVYYCTRGNYGVDYAMDYWGQGTSVTVSS
VL: DIQMTQSPASLSASVGETVTITCGASENIYGALNWYQRKQGKSPQLLIYGATNLADGMSSRFSGSGSGRQYSLKISSLHPDDVATYYCQNVLITPYTFGGGTKLEIK
notes: also called chimeric 36F710; Chimeric MAb
The term EC50 denotes the concentration that produces a half-maximal response. Higher therefore signals lower potency in that assay. Regarding B2, the “EC50 (read off the curve)” value in [1] was roughly 0.008 µg/mL. Moreover, the binding result in [2] is “no binding (tested: 20 nM)”. The EC50 in experiment [3] came to 0.0498 nM; in experiment [4], 0.0336 nM.

B3: humanized anti-human CCL20 antibody 36LK3/36HC2 (antibody, human IgG1, kappa, V domains shown)
VH: QVQLVQSGAEVKKPGASVKVSCKASGYTFTNYWMHWVRQAPGQGLEWMGVIDPSDSYTTYAQKFQGRVTMTVDTSTSTVYMELSSLRSEDTAVYYCARGNYGVDYAMDYWGQGTLVTVSS
VL: DIQMTQSPSSLSASVGDRVTITCGASENIYGALNWYQRKPGKAPKLLIYGATNLADGVPSRFSGSGSGRDYTLTISSLQPEDFATYYCQNVLITPYTFGQGTKLEIKR
notes: expressed in HEK293 cells; also called HC2/LK3; HC2LK3
B3: the binding result in experiment [5] is recorded as “no binding (tested: 10 ug/ml)”; in experiment [2], “no binding (tested: 20 nM)”. Moreover, the “EC50 (read off the curve)” value in experiment [6] is roughly 0.02 µg/mL; in [7], roughly 0.02 µg/mL; in experiment [8], roughly 0.02 µg/mL; in experiment [1] it was roughly 0.006 µg/mL. In addition, the half-maximal effective concentration (EC50) in [3] turned out to be 0.0629 nM; in experiment [4], 0.0459 nM.

B4: humanized anti-human CCL20 antibody 36LC3/36HC2 (antibody, human IgG1, kappa, V domains shown)
VH: QVQLVQSGAEVKKPGASVKVSCKASGYTFTNYWMHWVRQAPGQGLEWMGVIDPSDSYTTYAQKFQGRVTMTVDTSTSTVYMELSSLRSEDTAVYYCARGNYGVDYAMDYWGQGTLVTVSS
VL: DIQMTQSPSSLSASVGDRVTITCRASENIYGALNWYQQKPGKAPKLLIYGATNLADGVPSRFSGSGSGRQYSLTISSLQPEDFATYYCQNVLITPYTFGGGTKLEIKR
notes: expressed in HEK293 cells; also called HC2/LC3; HC2LC3
On to B4, for which the binding result is listed as “no binding (tested: 10 ug/ml)” in experiment [5], “no binding (tested: 20 nM)” in experiment [2] and “no binding (tested: 10 ug/ml)” with recombinant human CCL16. Further, the “EC50 (read off the curve)” value was roughly 0.02 µg/mL in [6], roughly 0.02 µg/mL in experiment [7], roughly 0.02 µg/mL in experiment [8] and roughly 0.006 µg/mL in experiment [1].
